Patent publication US20220195023A1 (ATRECA, published 2022)
Numbering of substitutions follows the chain as printed.

B1: AB-007028 (antibody, V domains shown)
VH: QMQLVESGGGVVQPGRSLRLSCAASGFTFSTYAMHWVRQAPGQGLQWVAVISYHSTNKYYEDSVRGRFTISRDNSKNTLYLQMNSLRAEDTAVYYCARDGYSSSFFDFWGQGTLVTVSS
VL: DIQMTQSPSTLSASVGDRVTITCRASQSISRWLAWYQQQPGKAPKLLMSGASVLESGVPSRFSGSGSGTEFTLTISSLQPDDFATYYCQHYNSYFVTFGQGTKVEIK
B2: AB-007068 (antibody, V domains shown)
VH: B1 VH with A23T, A40S
VL: B1 VL with T20A, G50L
B3: AB-007041 (antibody, V domains shown)
VH: B1 VH with A23T, T31D, A40S
VL: B1 VL with T20A
B4: AB-007059 (antibody, V domains shown)
VH: B1 VH with A23T, A40S, S104T
VL: B1 VL with T20A
B5: AB-007053 (antibody, V domains shown)
VH: B1 VH with A23T, A40S, N57Q
VL: B1 VL with T20A
B6: AB-007072 (antibody, V domains shown)
VH: B1 VH with A23T, A40S
VL: B1 VL with T20A, V53N
B7: AB-007058 (antibody, V domains shown)
VH: B1 VH with A23T, A40S, S103T
VL: B1 VL with T20A
B8: AB-007037 (antibody, V domains shown)
VH: B1 VH with A23T, A40S, R65K
VL: B1 VL with T20A
B9: AB-007061 (antibody, V domains shown)
VH: B1 VH with A23T, A40S
VL: B1 VL with T20A, S30D
B10: AB-007073 (antibody, V domains shown)
VH: B1 VH with A23T, A40S
VL: B1 VL with T20A, Y94H
B11: AB-007033 (antibody, V domains shown)
VH: B1 VH with Q46E, E61A
VL: B1 VL
B12: AB-007064 (antibody, V domains shown)
VH: B1 VH with A23T, A40S
VL: B1 VL with T20A, S49T
B13: AB-007035 (antibody, V domains shown)
VH: B1 VH with A23T, T31S, A40S
VL: B1 VL with T20A
B14: AB-007042 (antibody, V domains shown)
VH: B1 VH with A23T, A40S
VL: B1 VL with T20A, S28D
B15: AB-007030 (antibody, V domains shown)
VH: B1 VH with A23T, A40S, Q46E, E61A
VL: B1 VL with T20A
B16: AB-007054 (antibody, V domains shown)
VH: B1 VH with A23T, A40S, S102A
VL: B1 VL with T20A
B17: AB-007048 (antibody, V domains shown)
VH: B1 VH with A23T, A33S, A40S
VL: B1 VL with T20A
B18: AB-007050 (antibody, V domains shown)
VH: B1 VH with A23T, A40S, Y53Q
VL: B1 VL with T20A
B19: AB-007043 (antibody, V domains shown)
VH: B1 VH with A23T, A40S
VL: B1 VL with T20A, S56D
B20: AB-007046 (antibody, V domains shown)
VH: B1 VH with A23T, A40S
VL: B1 VL with T20A, N92Y
B21: AB-007067 (antibody, V domains shown)
VH: B1 VH with A23T, A40S
VL: B1 VL with T20A, G50S
B22: AB-007069 (antibody, V domains shown)
VH: B1 VH with A23T, A40S
VL: B1 VL with T20A, G50V
B23: AB-007074 (antibody, V domains shown)
VH: B1 VH
VL: B1 VL with F95Y
B24: AB-007063 (antibody, V domains shown)
VH: B1 VH with A23T, A40S
VL: B1 VL with T20A, S49A
B25: AB-007039 (antibody, V domains shown)
VH: B1 VH with A23T, A40S
VL: B1 VL with T20A, F95S
B26: AB-007071 (antibody, V domains shown)
VH: B1 VH with A23T, A40S
VL: B1 VL with T20A, V53S
B27: AB-007031 (antibody, V domains shown)
VH: B1 VH with A23T, A40S
VL: B1 VL with T20A, M48I
B28: AB-007060 (antibody, V domains shown)
VH: B1 VH with A23T, A40S, F105Y
VL: B1 VL with T20A
B29: AB-007065 (antibody, V domains shown)
VH: B1 VH with A23T, A40S
VL: B1 VL with T20A, G50K
B30: AB-007049 (antibody, V domains shown)
VH: B1 VH with A23T, A40S, Y53N, S55E
VL: B1 VL with T20A
B31: AB-007056 (antibody, V domains shown)
VH: B1 VH with A23T, A40S, S102Q
VL: B1 VL with T20A
B32: AB-007034 (antibody, V domains shown)
VH: B1 VH with M2V, Q46E, E61A
VL: B1 VL with M48I
B33: AB-007036 (antibody, V domains shown)
VH: B1 VH with A23T, A40S, H54D
VL: B1 VL with T20A
B34: AB-007038 (antibody, V domains shown)
VH: B1 VH with A23T, A40S, F108Y
VL: B1 VL with T20A
B35: AB-007047 (antibody, V domains shown)
VH: B1 VH with A23T, T31N, A40S
VL: B1 VL with T20A
B36: AB-007055 (antibody, V domains shown)
VH: B1 VH with A23T, A40S, S102T
VL: B1 VL with T20A
B37: AB-007070 (antibody, V domains shown)
VH: B1 VH with A23T, A40S
VL: B1 VL with T20A, G50A
B38: AB-007040 (antibody, V domains shown)
VH: B1 VH with A23T, A40S
VL: B1 VL with T20A, F95Y
B39: AB-007045 (antibody, V domains shown)
VH: B1 VH with A23T, A40S, G100A
VL: B1 VL with T20A
B40: AB-007062 (antibody, V domains shown)
VH: B1 VH with A23T, A40S
VL: B1 VL with T20A, R31S
B41: AB-007051 (antibody, V domains shown)
VH: B1 VH with A23T, A40S, T56R
VL: B1 VL with T20A
B42: AB-007032 (antibody, V domains shown)
VH: B1 VH with M2V
VL: B1 VL with M48I
B43: AB-007066 (antibody, V domains shown)
VH: B1 VH with A23T, A40S
VL: B1 VL with T20A, G50Q
B44: AB-007052 (antibody, V domains shown)
VH: B1 VH with A23T, A40S, T56N
VL: B1 VL with T20A
B45: AB-007044 (antibody, V domains shown)
VH: B1 VH with A23T, A40S, D62E
VL: B1 VL with T20A
B46: AB-007057 (antibody, V domains shown)
VH: B1 VH with A23T, A40S, S102H
VL: B1 VL with T20A

target: T1, CSP Protein (Plasmodium falciparum, UniProt Q7K740 19-374); assay: SPR, antibody on chip;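 also: antibodies immobilized on a Carterra chip, directly or via anti-human Fc capture, at two spots each, with CSP flowed over at 4-5 concentrations peaking at 0.5-8 µg/mL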
T1 construct: also called circumsporozoite protein; complete CSP protein
T1 sequence (Q7K740 19-374 limits assumed): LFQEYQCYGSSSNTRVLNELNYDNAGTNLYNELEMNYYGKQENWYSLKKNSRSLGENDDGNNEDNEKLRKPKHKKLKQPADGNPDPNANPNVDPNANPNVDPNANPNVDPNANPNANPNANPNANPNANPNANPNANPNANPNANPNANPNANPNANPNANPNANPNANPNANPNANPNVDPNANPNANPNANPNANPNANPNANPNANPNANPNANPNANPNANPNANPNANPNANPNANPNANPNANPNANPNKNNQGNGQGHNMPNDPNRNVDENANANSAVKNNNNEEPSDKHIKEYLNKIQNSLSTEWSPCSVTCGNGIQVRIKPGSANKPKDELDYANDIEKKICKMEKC
Experimental: For SPR, each antibody was either directly coupled to a Carterra Chip or coupled using a goat anti-human Fc antibody. The uncoupled antibodies were washed off and various concentration gradients of the targets were flowed over the antibodies, where the highest concentration of each target was in the range 0.5-8 μg/mL. Each antibody was immobilized in two different locations on the chip to allow for duplicate measurements. The affinity for each antibody-target combination was determined using 4-5 target concentrations in Mathematica software. If variation between the two duplicates was >3-fold, the antibody-target measurement was repeated.

Going from B1 to B2, the Kd rises from 0.0457 nM to 0.152 nM (3.3-fold). The first binds more tightly here.

Going from B3 to B4, the Kd rises from 0.0439 nM to 1.08 nM (25-fold).

Compared with B5, B6 is 1.5-fold lower in Kd: 0.298 nM for the first, 0.194 nM for the second.

First: B7
Second: B8
The Kd of the first is 4.3-fold higher: 0.149 nM for the first, 0.0346 nM for the second.

Compared with B9, B10 is 1.6-fold higher in Kd: 0.0504 nM for the first, 0.0816 nM for the second. The first binds more tightly here.

First: B11
Second: B12
The Kd of the first is 14-fold lower: 0.0408 nM for the first, 0.556 nM for the second.

Going from B13 to B14, the Kd falls from 0.0513 nM to 0.034 nM (1.5-fold).

B15 and B16 are within 1.5-fold of each other in Kd: 0.132 nM for the first, 0.17 nM for the second.

Compared with B17, B18 is 3-fold lower in Kd: 0.437 nM for the first, 0.147 nM for the second.

B19 and B20 are within 1.5-fold of each other in Kd: 0.0426 nM for the first, 0.0364 nM for the second.

Going from B21 to B22, the Kd rises from 0.0877 nM to 0.174 nM (2-fold).

B23 and B24 are within 1.5-fold of each other in Kd: 0.0415 nM for the first, 0.0524 nM for the second.

First: B25
Second: B26
The Kd of the first is 1.6-fold higher: 0.106 nM for the first, 0.0683 nM for the second.

Compared with B27, B28 is 4-fold higher in Kd: 0.0496 nM for the first, 0.199 nM for the second.

Going from B29 to B30, the Kd falls from 0.454 nM to 0.152 nM (3-fold).

First: B31
Second: B32
The Kd of the first is 2-fold lower: 0.042 nM for the first, 0.0824 nM for the second.

First: B33
Second: B34
The Kd of the first is 3.3-fold higher: 0.0967 nM for the first, 0.029 nM for the second. The second binds more tightly here.

First: B35
Second: B36
The Kd of the first is 2.1-fold lower: 0.175 nM for the first, 0.374 nM for the second. The first binds more tightly here.

Compared with B37, B38 is 4-fold lower in Kd: 0.177 nM for the first, 0.0447 nM for the second.

Compared with B39, B40 is 3.3-fold lower in Kd: 0.284 nM for the first, 0.0849 nM for the second.

B41 and B42 are within 1.5-fold of each other in Kd: 0.0414 nM for the first, 0.0469 nM for the second.

Compared with B43, B44 is 14-fold lower in Kd: 0.376 nM for the first, 0.0261 nM for the second.

First: B45
Second: B46
The Kd of the first is 4.8-fold lower: 0.0319 nM for the first, 0.153 nM for the second. The first binds more tightly here.
